Literature values as cited in paper PMC12005733.

Biological target: Calbindin D9k C-terminal split part C-terminal half (Bos taurus) (UniProt P02633)

For “Calbindin D9k N-terminal split part N-terminal half (from UniProt P02633)”, the Kd is listed as 3 pM.
